These results are taken from US20200325212A1 (CITY OF HOPE, published 2020).

In assay [1] the target is T1, CTLA4-Fc MMP9 (MMP9-cleavable CTLA4-Fc mask; CTLA4-Fc_WT) (human).
T1 construct: It was expressed in insect cells; also called CTLA-4-MMP9-Fc; CTLA4-MMP9-Fc
Description: SPR, CTLA-4-MMP9-Fc coupled to the sensor chip and titrated with m-Lcn2-Fc; no dissociation observed. The text has this: To verify that the m-Lcn2-Fc and CTLA-4-Fc form a 1:1 complex, we used analytical size exclusion chromatography (SEC) (FIG. 3 panel A). A definitive shift to earlier elution volumes was observed, consistent with a molecular mass of 200 kD, as expected. To verify an increase in the apparent affinity due to the energy additivity of bivalent-bivalent interaction, the mask, CTLA-4-MMP9-Fc, was coupled to a CMS sensor chip and titrated with the bivalent m-Lcn2-Fc. A substantial increase in affinity was observed. In fact, no dissociation was observed and thus no calculation could be completed for an apparent dissociation constant (FIG. 3 panel B). […] In an attempt to establish the off-rate, a competition assay was carried out. Specifically, the 1:1 m-Lcn2-Fc|CTLA-4-MMP9-Fc complex was isolated and incubated with 10 fold excess of Alexafluor-labeled CTLA-4-MMP9-Fc. The exchange by size exclusion chromatography was followed by monitoring at […]. After two weeks, less than 5% exchange was observed.
Surface Plasmon Resonance (SPR). SPR experiments were performed on a GE Biacore T100 instrument at 25° C. Ligands were amine coupled to CMS chips at 300 Rmax. Blank lanes were used as baseline control. Analyte titrations were prepared as serial dilutions in HBS-EP⁺ running buffer (10 mM Hepes pH 7.4, 150 mM NaCl, 3 mM EDTA, 0.05% v/v P20). […]

The target of assay [2] is murine CTLA4 on murine T-cells (C57BL/6 splenocytes) (mouse, UniProt P09793 36-223). The experiment in a line: cell-based or functional assay.
Assay [3] has as its target T2, CTLA-4-Fc (purchased from R&D systems) (human, UniProt P16410 37-162).
T2 construct: Bought reagent; also called human CTLA4; not shown: Fc part and linker of the commercial product are not described
T2 sequence (looked up): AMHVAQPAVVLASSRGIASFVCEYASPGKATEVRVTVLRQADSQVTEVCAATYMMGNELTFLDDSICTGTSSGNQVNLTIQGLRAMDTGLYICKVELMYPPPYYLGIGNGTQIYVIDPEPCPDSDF
The experiment in a line: SPR presumed; method not given; monovalent m-Lcn2 to CTLA-4.

Assay [4] has as its target T2, CTLA-4-Fc (purchased from R&D systems). The experiment in a line: calculated from the koff of the monovalent m-Lcn2 : CTLA-4 interaction.
The target of assay [5] is T3, CTLA4-Fc variant E31S R33E T51H (human).
T3 construct: Whole fusion (CTLA4 extracellular domain, MMP9 linker, IgG1 Fc) with E31S, R33E and T51H; also called E31S, R33E, T51H CTLA-4
The experiment in a line: SPR (Biacore T100), mLCN2 on CTLA4-Fc variant. As to the method:
(§1) Surface Plasmon Resonance (SPR). SPR experiments were performed on a GE Biacore T100 instrument at 25° C. Ligands were amine coupled to CMS chips at 300 Rmax. Blank lanes were used as baseline control. Analyte titrations were prepared as serial dilutions in HBS-EP⁺ running buffer (10 mM Hepes pH 7.4, 150 mM NaCl, 3 mM EDTA, 0.05% v/v P20). Increasing concentrations of analytes were flowed over blank and ligand lanes at 50 μL/min. Regeneration buffer (1 M NaCl, 10 mM glycine pH 2.6) was flowed at 90 μL/min for 10 s. Data analyses were performed using Biacore T100 Evaluation Software, version 1.1.1 (GE Healthcare). Response reported as the difference between blank and peptide lanes.
(§2) TABLE 3 Kinetics of CTLA4-Fc mask variants, as measured by SPR. Binding kinetics of mLCN2 for each CTLA4-Fc variant was measured by SPR. Half-life time was calculated from equation: t_{1/2} = ln (2)/kd.
A general note: In SPR one partner is held on a chip, and binding of the other changes the refractive index at the surface.

For assay [6], the target named is T4, CTLA4-Fc variant T51H (human).
T4 construct: Whole fusion (CTLA4 extracellular domain, MMP9 linker, IgG1 Fc) with T51H; also called T51H CTLA-4
The experiment in a line: SPR (Biacore T100), mLCN2 on CTLA4-Fc variant. As to the method:
as §1, §2

The target in assay [7] is CTLA4-Fc variant Y52F (human). The experiment in a line: SPR (Biacore T100), mLCN2 on CTLA4-Fc variant. Here is the method: as §1, §2
For assay [8], the target named is T1, CTLA4-Fc MMP9 (MMP9-cleavable CTLA4-Fc …). Description: SPR (Biacore T100), mLCN2 on CTLA4-Fc variant. As to the method: as §1, §2
The target in assay [9] is T5, CTLA4-Fc variant E31A R33A (human).
T5 construct: Whole fusion (CTLA4 extracellular domain, MMP9 linker, IgG1 Fc) with E31A and R33A; also called E31A and R33A CTLA-4
Description: SPR (Biacore T100), mLCN2 on CTLA4-Fc variant. Here is the method: as §1, §2

Assay [10] deals with T3, CTLA4-Fc variant E31S R33E T51H. Description: calculated from SPR kd, t1/2 = ln(2)/kd. Here is the method:
as §1, §2

Assay [11] addresses T4, CTLA4-Fc variant T51H. The experiment in a line: calculated from SPR kd, t1/2 = ln(2)/kd. As to the method:
as §1, §2

In assay [12] the target is CTLA4-Fc variant Y52F (human). The experiment in a line: calculated from SPR kd, t1/2 = ln(2)/kd. As to the method: as §1, §2
Assay [13] deals with T1, CTLA4-Fc MMP9 (MMP9-cleavable CTLA4-Fc …). The experiment in a line: calculated from SPR kd, t1/2 = ln(2)/kd. As to the method: as §1, §2
In assay [14] the target is T5, CTLA4-Fc variant E31A R33A. The experiment in a line: calculated from SPR kd, t1/2 = ln(2)/kd. Here is the method: as §1, §2

A value given as a limit tells only on which side of the number the result lay.

T4 sequence (chain, as listed by the source T51H T51H limits assumed): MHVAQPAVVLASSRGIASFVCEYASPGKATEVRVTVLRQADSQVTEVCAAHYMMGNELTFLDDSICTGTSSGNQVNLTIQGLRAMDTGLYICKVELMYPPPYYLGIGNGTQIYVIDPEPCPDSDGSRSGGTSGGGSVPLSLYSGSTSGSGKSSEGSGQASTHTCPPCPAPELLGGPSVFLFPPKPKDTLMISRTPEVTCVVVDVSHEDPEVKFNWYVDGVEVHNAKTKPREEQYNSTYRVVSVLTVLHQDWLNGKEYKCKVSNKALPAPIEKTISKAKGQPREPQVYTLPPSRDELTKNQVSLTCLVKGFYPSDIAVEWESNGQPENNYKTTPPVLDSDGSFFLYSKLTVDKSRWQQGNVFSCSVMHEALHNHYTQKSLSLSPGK
T5 sequence (chain, as listed by the source E31A R33A E31A R33A limits assumed): as the sequence (chain, as listed by the source T51H T51H limits assumed) above, with E31A, R33A, H51T counted along it
Sequence of CTLA4-Fc variant Y52F (human) (chain, as listed by the source Y52F Y52F limits assumed): as the sequence (chain, as listed by the source T51H T51H limits assumed) above, with H51T, Y52F counted along it
T1 sequence (chain, as listed by the source limits assumed): as the sequence (chain, as listed by the source T51H T51H limits assumed) above, with H51T counted along it
T3 sequence (chain, as listed by the source E31S R33E T51H E31S R33E T51H limits assumed): as the sequence (chain, as listed by the source T51H T51H limits assumed) above, with E31S, R33E counted along it

B1: mLCN2-Fc (bivalent m-Lcn2 fused to human IgG1 Fc) (Fc fusion)
chain: QDSTSDLIPAPPLSKVPLQQNFQDNQFHGKWYVVGLAGNRILRDDQHPMNMYATIYELKEDKSYNVTSVISSHKKCEYTIATFVPGSQPGEFTLGNIKSYGDKTSYLVRVVSTDYNQYAVVFFKLAEDNAEFFAITIYGRTKELASELKENFIRFSKSLGLPENHIVFPVPIDQCIDG
notes: m-Lcn2 cDNA was subcloned N-terminal to a linker-Fc domain and expressed in insect cells; also called bivalent m-Lcn2-Fc; unmasked m-Lcn2-Fc; not shown: linker between m-Lcn2 and Fc; human IgG1 Fc fragment
A word on the Kd: it is the equilibrium constant for the complex coming apart. Read a low Kd as a tighter complex. For B1, the Kd in assay [1] is ≤ 0.2 nM. Further, the “induction of IFN-γ production (Elispot)” value in assay [2] turned out to be 10 fold.

B2: modified lipocalin2 (mLcn2), monovalent (designed binder)
chain: QDSTSDLIPAPPLSKVPLQQNFQDNQFHGKWYVVGLAGNRILRDDQHPMNMYATIYELKEDKSYNVTSVISSHKKCEYTIATFVPGSQPGEFTLGNIKSYGDKTSYLVRVVSTDYNQYAVVFFKLAEDNAEFFAITIYGRTKELASELKENFIRFSKSLGLPENHIVFPVPIDQCIDG
notes: Re-engineered human lipocalin 2 used as a CTLA-4 antagonist; also called monovalent mLCN2; monomeric mLCN2
As a reminder, the koff is a measure of how fast the partners let go of each other. Low values mean a long-lived complex, high ones a short-lived complex. As a reminder, the kon is the rate constant with which the complex forms. A low value points to slower complex formation. Take B2: the koff in assay [3] was determined as 0.00051 s⁻¹; in assay [5], 0.025 s⁻¹; in [6] it was 0.00022 s⁻¹; in [7] it was 0.000215 s⁻¹; in assay [8], 0.000201 s⁻¹; in [9] it was 0.0011 s⁻¹. In addition, in [4], the “t1/2 (dissociation half-life, 0.693/KOFF)” value is 22 min. The Kd in assay [5] is 5600 nM; in assay [6], 9.07 nM; in assay [7], 6.14 nM; in assay [8], 5.52 nM; in [9] it was 100 nM. In addition, the kon in assay [5] was 4430 M⁻¹ s⁻¹; in assay [6] it was 24200 M⁻¹ s⁻¹; in assay [7] it was 35100 M⁻¹ s⁻¹; in assay [8], 36400 M⁻¹ s⁻¹; in assay [9] it was 11000 M⁻¹ s⁻¹. In addition, the “Calculated t1/2” value in assay [10] is 0.467 min; in assay [11], 52.5 min; in assay [12], 53.7 min; in [13] it was 57.8 min; in assay [14], 11.6 min.
